In publication PMC10845952, “Mass spectrometry and split luciferase complementation assays reveal the MecA protein interactome of Streptococcus mutans” (Microbiology Spectrum, 2024):

T1: MecA fused to the RenG N-terminal domain (1-155) (S. mutans, UniProt Q8DW33 1-240)
T1 construct: adaptor protein MecA; S. mutans UA159; source: S. mutans, expressed in live cells; not shown: RenG luciferase N-terminal domain (1-155), C-terminal, kept
T1 sequence: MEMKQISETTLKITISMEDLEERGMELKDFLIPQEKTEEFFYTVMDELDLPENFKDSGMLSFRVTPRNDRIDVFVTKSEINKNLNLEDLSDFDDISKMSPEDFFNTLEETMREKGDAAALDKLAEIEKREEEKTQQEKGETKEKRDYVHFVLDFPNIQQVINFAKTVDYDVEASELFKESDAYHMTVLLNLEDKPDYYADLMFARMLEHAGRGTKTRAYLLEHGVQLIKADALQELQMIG

B1: AlaS fused to the RenG C-terminal domain (156-314) (natural protein, S. mutans, UniProt Q8CWY0 1-872, looked up)
chain: MKQLTSAQVRQMWLDFWKSKDHAIEPSANLVPVNDPTLLWINSGVATLKKYFDGSVIPENPRITNAQKAIRTNDIENVGKTARHHTMFEMLGNFSVGDYFRDDAIKWGFELLTSPEWFDLPKDKLYMTYYPDDKDSYNRWIECGVDPSHLIPIEDNFWEIGAGPSGPDTEIFFDRGEDFDPDHIGVRLLAEDIENDRYIEIWNIVLSQFNADPAVPRSEYKELPHKNIDTGAGLERLVAVMQGAKTNFETDLFMPIIREIEKLSGKTYDQDGDNMSFKVIADHIRSLSFAIGDGALPGNEGRGYVLRRLLRRAVMHGRRLGINEPFLYKLVPTVGKIMESYYPEVLEKQDFIEKIVKREEETFARTIDAGSNMLDQLLADLKAADKDTLEGKDIFRLYDTYGFPVELTEELAEDAGFKIDHQGFQAAMKEQQERARANVVKGGSMGMQNETLSNITEKSTFNYEKEALDSSLSVIIADNKRIEAVSEGQVLLVFSETPFYAEMGGQVADHGLIKNDKGDTVARVTDVQKAPNGQALHTVDVLGSLSVGTTYHLEIDHERRNRVMKNHTATHLLHAALHNVIGNHATQAGSLNEVEFLRFDFTHFEAVTPEELRQIEEEVNQQIWKAIPVTTIETDLDTAKEMGAMALFGEKYGKNVRVVSIGDYSVELCGGTHLKNTSEIGIFKIVKEEGIGSGTRRILAVTSKEAFEAYRQEEDILKEIATTLKAPQMNQVANKVASLQDQLHKLQKENAELKEKAAAVAAGDIFKDVKEVNGLRYIASQVEVADAGALRTFADKWKQKDYSDVLVLVASIGKKVNVLVASKSKDIHAGNLIKALAPIVSGRGGGKPDMAMAGGSDASAIKDLIAAVAENL
notes: Alanine-tRNA ligase, AlaS; S. mutans UA159; not shown: RenG luciferase C-terminal domain (156-314), C-terminal, kept
B2: IlvD fused to the RenG C-terminal domain (156-314) (natural protein)
chain: not shown
notes: Dihydroxy-acid dehydratase, IlvD; S. mutans UA159; not shown: RenG luciferase C-terminal domain (156-314), C-terminal, kept
B3: ClpC with the RenG C-terminal domain (156-314) fused to its N-terminus (natural protein, S. mutans, UniProt Q8DS14 1-813, looked up)
chain: MTDYSLKMQEVFRLAQFEAARFESSYLESWHVLLAMVEIDSSVAGLSFAEFEADVRFEDYQAAAILAIGKKPKSSSNDIMLLEQSHALKRTLAEAAAISQVTHAKEVGTEHVLFAMLLNPNLLATRILELVGFHAKDDGESIRLLDLRKVIERYAGFSKEDIKAIFEMRKPKKVKNSSSFSDLMKPPSVTGELADFTRDLTELARQGRLEPVIGREQEISRMVQILSRKTKNNPVLVGDAGVGKTALAYGLAQRIVDSAVPFELADMKVLELDMMSVVAGTRFRGDFEERMNQIIADIEADGHIVLFIDELHTIMGSGSGIDSTLDAANILKPALARGSLRTIGATTQEEYQKHIEKDAALSRRFAKVTIEEPSEEEAYQILLGLKKSYETYHHVIISDAAVMAAVKGAHRYLSGKNLPDSAIDLLDEASATVQGLVKKKAPAYLTDLDHALITNDYQLAKRLLKKEKKPLLKKRAEVKEEDILATLSKLSGIPVKKLTQADSKKYLNLERELHKRVIGQDDAVSSISRAIRRNQSGIRVGKRPIGSFMFLGPTGVGKTELAKALAEVLFDDESALIRFDMSEYMEKFAASRLNGAPPGYVGYEEGGELTEKVRNKPYSVLLFDEVEKAHPDIFNILLQVLDDGVLTDSRGRKVDFSNTIIIMTSNLGATALRDDKTVGFGAKSFSQDYKAMESRILEELKKVYRPEFINRIDEKVVFHNLGQEDIRHIVKIMVAPLIAHLADQGITLKFQPSALKHLALAGYDAEMGARPLRRTLQTEVEDKLAELILSGKLASGQTLKIGIQKEKLKFDIV
notes: also called N-ClpC
B4: GltB fused to the RenG C-terminal domain (156-314) (natural protein, S. mutans, UniProt Q8CWY8 1-478, looked up)
chain: MADPFGFLKYERKDNPYRPVNERIKDFEELQTTLSVEERQKQAARCMNCGIPFCHEGTFYGGGRAVSGCPNDNLIPEWNDLIYKGDFRRAFERLTRTNPLPEMTGRVCPAPCEKACTEGLNGSGVTIHDNERFIIDNAFEEGWVADSGRPIERTGFKVAVVGSGPAGLSAAWRLNQLGHSVTVFERSDRFGGLLMYGIPNMKLDKKIVQRRIDTMASIGINFVANTEIGRDITAEELLEKFDRVILATGASVPRDLDIPGRDLKGIRFAVDFLTETTKNLLDSDTHELPPLLEGKHVLVIGGGDTGNDCIGTAVRLGAASVRQLEITPQLPEKRLPTNPWPQYPMINRTGYGQEEADFVQQTDLTDYITSTVEFLGENGQVTAVKTIKVGPGFKAIEGTEEVIKADLVLLAMGFTGAEKALFDQFRVECVYDDYSTRNEKVFVAGDARRGPSLVIWGIREGRKTAEKIDQNLRMMVTE
B5: TopA fused to the RenG C-terminal domain (156-314) (natural protein, S. mutans, UniProt Q8DUD3 1-705, looked up)
chain: MTSKTTTTVKKTSKKRATPKKNLVIVESPAKAKTIEKYLGRSYKVVASVGHIRDLKKSSMSIDFDNNYEPQYINIRGKGPLINSLKKEAKNAKQIFLASDPDREGEAISWHLAHILDLDLKGKNRVVFNEITKDAVKNAFVEPRQIDMDLVDAQQARRVLDRIVGYSISPILWKKVKKGLSAGRVQSVALKLIIDRENEIKAFKPEEYWSIDGFFKKGNKKFQANFYGLDNKKTKLKSNDDVKKVLTRIKNDDFLVDKVEKKERKRNAPLPYTTSSLQQDAANKINFRTRKTMMVAQQLYEGIRLGSNGQQGLITYMRTDSTRISPVAQNDAANYITEHFGAEYSKHGNHVRNASGAQDAHEAIRPSNVNHTPESIAKYLDKDQLKLYTLIWNRFVASQMTAAVFDTVKVNLTQNGVLFIANGSQIKFKGYMAVYNDSDKTKVLPEMIKGETVKKISANPEQHFTQPPARYSEASLIKTLEENGVGRPSTYAPTLETIQKRYYVRLVSKRFEPTELGEIVNSLIIEFFPDIVDVKFTAEMESKLDEVEIGKEEWQKVIDQFYKPFEKEVIKAEEQMEKIQIKDEPAGFDCDVCGHPMVIKLGRYGKFYACSNFPDCHNTKAITKEIGVICPICQKGQVIERKTKRNRIFYGCDRYPDCDFTSWNKPIGRDCPKSGDFLVEKKIRGGGKQVVCSNEECDYKEKAVK
B6: UvrA fused to the RenG C-terminal domain (156-314) (natural protein, S. mutans, UniProt P72481 1-943, looked up)
chain: MQDKLIIRGARAHNLKNIDVEIPRDKLIVMTGLSGSGKSSLAFDTIYAEGQRRYVESLSAYARQFLGNMDKPDVDSIDGLSPAISIDQKTTSKNPRSTVGTVTEINDYLRLLYARVGIPYCKNGHGAITASSVEQIVDQVLILPERTRMQILAPVVRRKKGQHKAVFDRIQKDGYVRVRIDGDIMDVAEVPELSKNKMHNIEVVVDRLVQKDGIRGRLFDSIEAALHLGDGYVIIDTMDDHELIFSEHYSCPVCGFTVPELEPRLFSFNAPFGSCPTCDGLGIKLEVDLDLVIPDENKTLREGTLAPWNPISSNYYPQLLEQAMNAFGVDMDKPWKDLSDEDKKLVLHGSGDTAFHFHYQNDFGGVRDIDIPFEGIISNISRRYHETNSDFTRNVMRSYMNELPCATCHGYRLNDQALSVRVGGKEGLNIGQVSELSIADHLSLLTHLELSENEKTIATPIVKEIKDRLTFLNNVGLNYLTLSRSAGTLSGGESQRIRLATQIGSNLSGVLYILDEPSIGLHQRDNDRLISSLKKMRDLGNTLIVVEHDEDTMMAADWLVDVGPGAGALGGEIVASGTPRQVAKNKKSITGQYLSGKKKIPVPLDRRKGSGRFIEIKGAAENNLQNINVKFPLGKFIAVTGVSGSGKSTLVNSILKKVIAQKLNRNSEKPGKYKSISGIEHIDRLIDIDQSPIGRTPRSNPATYTGVFDDIRDLFAQTNEAKIRGYKKGRFSFNVKGGRCEACSGDGIIKIEMHFLPDVYVPCEVCHGTRYNSETLEVHYKDKNIAEILNMTVNDAAEFFAPIPKIARKIRTIKDVGLGYVTLGQPATTLSGGEAQRMKLASELHKRSTGKSFYILDEPTTGLHTDDIARLLKVLERFVDDGNTVLVIEHNLDVIKTADHIIDLGPEGGVGGGQVIATGTPEQVAEMTESYTGQYLKGRLNEK
notes: Excinuclease ABC subunit, UvrA; S. mutans UA159; not shown: RenG luciferase C-terminal domain (156-314), C-terminal, kept
B7: PheT fused to the RenG C-terminal domain (156-314) (natural protein, S. mutans, UniProt Q8CWX2 1-801, looked up)
chain: MLVSYKWLKELVDIDVPSHELAEKMSTTGIEVEGVDVPAEGLSKLVVGHVLSCEDVPETHLHLCQVDTGEEESRQIVCGAPNITAGIKVIVALPGARIADNYKIKKGKIRGMESLGMICSLQELGLPDSIIPKEYSDGIQILPEDAVPGESIFPYLDLDDEIIELSITPNRADALSMRGVAHEVAAIYDKSVHFEDKVLTESDKKAADLIKVAIASDKVLTYKARVVENVTIKPSPQWLQNLLMNAGIRPINNVVDVTNYVLLYFGQPMHAFDLDKFEGKDILARQAKAGEKLVTLDGEARDLIEEDLVITVADKPVALAGVMGGAATEIDASSKNVVLEAAVFDGKSVRKTSSRLNLRSESSSRFEKGVNYADVVKALDFAAAMLTELADGTVLAGQVSAGAVPTDDIQVSTSLDYVNVRLGTDLVFSDIESVFARLGFGLSGNDEKFTVSVPRRRWDISIQADLVEEIARIYGYDKLPTTLPEAAGTVGELTKTQKLRRKIRNLAEGSGLSEIISYALTTPEKAVAFTPNPTKITELMWPMTVDRSALRQNIVSGMLDTIAYNVARKSNNLALYEIGKVFEQTADPKKDLPKEIDTFAFALTGLVTEKDFQTAATPVDFFYAKGVLEAILAKLEITVQFVATKEMANMHPGRTALIERDGQVIGYLGQVHPQTAKLYDIPETYVAEVNLNALEAALKSDLVFEDITKFPAVSRDIALLLSEKVSHQDILDAIAASGVKRLIKVKLFDVYAGEKLGVGKKSMAYSLTFQNPNDNLTDEEVAKYMEKITSALTEKVGAEVR
notes: Phenylalanine-tRNA ligase subunit beta, PheT; S. mutans UA159; not shown: RenG luciferase C-terminal domain (156-314), C-terminal, kept
B8: MnmG fused to the RenG C-terminal domain (156-314) (natural protein, S. mutans, UniProt Q8DRS6 1-631, looked up)
chain: MTHEFTENYDVIVIGAGHAGVEASLATSRMGCKTLLATINLEMLAFMPCNPSIGGSAKGIVVREIDALGGEMGKNIDKSYIQMRMLNTGKGPAVRALRAQADKALYARNMKHTVEQQENLTLRQSMIDEILVEDGKVIGVRTATNQKYSAQAVIVTTGTALRGEIILGELKYSSGPNNSLASVTLADNLRDLGLEIGRFKTGTPPRVKANSIHYDETEIQPGDKKANHFSFMSKDEDYLKDQIPCWLTYTNQSSHDIINKNLYRAPMFSGIVKGVGPRYCPSIEDKIVRFADKDRHQLFLEPEGRETEEVYIQGLSTSLPEDVQKDVVHSIKGLENAEMMRTGYAIEYDIVLPHQLRATLETKKISGLFTAGQTNGTSGYEEAAGQGIVAGINAALKIQGKPELILKRSDAYIGVMIDDLVTKGTLEPYRLLTSRAEYRLILRHDNADLRLTEIGHQVGLVNEERYMRFQIRKNQFDNELTRLSSIKLKPVAEINKRIEELGFKPLTDALTAKEFMRRPEINYAIATSFVGPAAESLDEKVIELLETEIKYEGYINKALDQVAKMKRMEEKRIPKNIDWDAIDSIATEARQKFKKINPETIGQASRISGVNPADISILMVYLEGKNRSRTR
notes: not shown: RenG luciferase C-terminal domain (156-314), C-terminal, kept

Target: T1, MecA fused to the RenG N-terminal …
Assay: split reporter (BiFC, NanoBiT)
Details: partners not purified

Going from B1 to B2, the “relative binding affinity (%)” value rises from 5.5 ± 0.29% to 13.1 ± 0.61%.

First: B3
Second: B4
The “relative binding affinity (%)” value of the first is higher: 55.2 ± 4.16% for the first, 7.45 ± 0.28% for the second.

First: B5
Second: B6
The “relative binding affinity (%)” value of the first is higher: 8.64 ± 0.36% for the first, 7.86 ± 0.3% for the second.

Going from B7 to B8, the “relative binding affinity (%)” value falls from 17.9 ± 0.77% to 8 ± 0.33%.
